{"source": "paper PMC9313153", "about": "“Supramolecular Enzymatic Labeling for Aptamer Switch-Based Electrochemical Biosensor”", "biological_target": "carcinoembryonic antigen (CEA) (UniProt P06731 35-685)", "sequence (P06731 35-685)": "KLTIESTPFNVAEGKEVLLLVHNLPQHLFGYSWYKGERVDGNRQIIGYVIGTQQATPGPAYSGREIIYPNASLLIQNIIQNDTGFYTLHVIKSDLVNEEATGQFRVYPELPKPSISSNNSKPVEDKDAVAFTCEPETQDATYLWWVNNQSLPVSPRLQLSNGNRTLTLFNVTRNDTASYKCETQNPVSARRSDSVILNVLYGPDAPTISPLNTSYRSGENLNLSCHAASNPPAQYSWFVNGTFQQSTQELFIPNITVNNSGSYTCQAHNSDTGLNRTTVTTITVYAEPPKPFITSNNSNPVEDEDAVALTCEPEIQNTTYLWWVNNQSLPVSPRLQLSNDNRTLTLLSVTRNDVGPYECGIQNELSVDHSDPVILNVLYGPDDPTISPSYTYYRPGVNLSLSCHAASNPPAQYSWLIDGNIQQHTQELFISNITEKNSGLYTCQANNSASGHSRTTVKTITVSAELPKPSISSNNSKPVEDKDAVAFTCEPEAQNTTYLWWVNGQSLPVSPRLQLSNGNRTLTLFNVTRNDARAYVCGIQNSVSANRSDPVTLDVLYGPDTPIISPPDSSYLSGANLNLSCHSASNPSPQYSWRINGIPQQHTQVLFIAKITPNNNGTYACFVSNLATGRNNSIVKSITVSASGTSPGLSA", "assay": "amperometric aptasensor (electrode-immobilized aptamer, HRP-CD label); HRP-CD, H2O2; detection range 10 pg/mL to 1 ng/mL, LOD 3.1 pg/mL (not a Kd); Aptamer electrode washed in 20 mM Tris-HCl pH 7.4, 100 mM NaCl, 5 mM MgCl2; casein block; read-out in 0.1 M sodium phosphate pH 7.4 with H2O2; CEA incubation buffer and temperature not in the material", "conditions": "protein: commercial; label: 5' thiol on gold nanoparticles; 3' adamantane for HRP-cyclodextrin; hairpin"}
{"binder": "CCACGATACCAGCTTATTCAATTCGTGG (structured_DNA, 5'-HS-(CH2)6; 3'-(CH2)6-NH2 converted to adamantane (ADA))", "note": "[Apt-ADA (anti-CEA aptamer)]", "values": [{"measurement": "binding result", "value": "binds"}]}
